Data reported in patent US20240294644A1 (BLUEFIN BIOMEDICINE, published 2024).
Residue numbers refer to the chain shown, from its start.

T1: cynomolgus monkey VTCN1 protein (cynomolgus monkey, UniProt A0A2K5U6P5 25-259)
T1 construct: The construct and its tag are not described; also called cyno VTCN1
T1 sequence: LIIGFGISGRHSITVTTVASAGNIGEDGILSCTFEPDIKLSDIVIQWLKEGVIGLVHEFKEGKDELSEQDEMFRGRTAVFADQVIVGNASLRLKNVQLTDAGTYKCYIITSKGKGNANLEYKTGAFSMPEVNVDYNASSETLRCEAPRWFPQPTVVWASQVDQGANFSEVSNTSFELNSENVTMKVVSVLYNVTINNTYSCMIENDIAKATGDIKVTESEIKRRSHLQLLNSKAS

T2: human VTCN1 expressed on cells (293-VTCN1 cells; SKBR3, MX-1 and ZR-75-1 cells that express it naturally) (human, UniProt Q7Z7D3 25-282)
T2 construct: The cDNA was bought from Origene
T2 sequence: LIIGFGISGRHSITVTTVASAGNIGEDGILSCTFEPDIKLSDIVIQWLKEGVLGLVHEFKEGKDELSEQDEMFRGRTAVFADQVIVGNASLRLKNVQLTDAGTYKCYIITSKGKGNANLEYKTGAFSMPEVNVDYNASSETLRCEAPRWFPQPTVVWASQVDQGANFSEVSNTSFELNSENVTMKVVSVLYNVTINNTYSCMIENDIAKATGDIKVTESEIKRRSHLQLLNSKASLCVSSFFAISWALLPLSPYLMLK

T3: recombinant human VTCN1-his protein (human, UniProt Q7Z7D3 25-259, limits assumed)
T3 construct: also called human VTCN1 protein; recombinant VTCN1
T3 sequence: T1 sequence with I53L

T4: mouse VTCN1 expressed on 293 cells (mouse, UniProt Q7TSP5 25-257)
T4 construct: whole, on cells
T4 sequence (looked up): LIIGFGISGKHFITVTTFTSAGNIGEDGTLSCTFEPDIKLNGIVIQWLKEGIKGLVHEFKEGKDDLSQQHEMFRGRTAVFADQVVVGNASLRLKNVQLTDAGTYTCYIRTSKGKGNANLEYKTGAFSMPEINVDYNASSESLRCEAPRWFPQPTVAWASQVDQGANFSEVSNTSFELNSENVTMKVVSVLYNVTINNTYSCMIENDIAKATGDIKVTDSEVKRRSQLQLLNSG

B1: 3D11 (antibody, V domains shown)
VH: QVQLQQPGAELVKPGASVKLSCKASGYSFTSYWMNWVKQRPGRGLEWIGRIHPSDSETHYNQNFKSKATLTVDKSSSTAYIQLNSLTSEDSAVYYCARPYYFYGSSPYAMDYWGQGASVTVSS
VL: DVVMTQTPLSLPVSLGDQASISCRSSQSIVHSNGNTYLEWYLQKPGQSPKLLIYKVSNRFSGVPDRFSGSGSGTDFTFKISRVEAEDLGVYYCFQGSHVPYTFGGGTKLEIK
notes: Recombinant mouse antibody made in CHO cells
B2: 7F10 (antibody, V domains shown)
VH: QVQLQQSGPGLVQPSQSLSITCTVSGFSLTSYGIHWVRQSPGKGLEWLGVIWSSGSTDYNAAFISRLSISKDNSKSQVFFKMNSLQSDDTAIHYCARDITTIAEGFAYWGQGTLVTVSA
VL: NIVMTQSPKSMSMSVGERVTLSCKASENVGTYVSWYQQKPEQSPKLLIYGASNRYTGVPDRFTGSGSATDFTLTISSVQAEDLADYHCGQSYSYPFTFGSGTKLEIK
notes: as for B1
B3: 6D9 (antibody, mouse IgG2a, V domains shown)
VH: QIQLQQSGPGLVQPSQSLSITCTVSGFSLTSYGVQWIRQSPGKGLEWLGVIWSSGSTDYNAAFLSRLSFSKDNSKSQVFFQMNSLQADDSAIYYCARDVTTIVEGFAHWGQGTLVTVSA
VL: B2 VL with N28K, A80V, S91T
notes: also called 6D9-mIgG2a; murine VTCN1 antibody 6D9
B4: 5A12 (antibody, V domains shown)
VH: B2 VH with I34V, H35Q, S70N, S87P, H93Y, A103V
VL: B2 VL with N1I
notes: as for B1
B5: 3G10 (antibody, V domains shown)
VH: B2 VH with V2I, Q5K, Q6E, I34V, S54G, S56Y, A61S, S87A, H93Y, A103V
VL: B2 VL with N1I, V19I, S22N, R61H, S91T
notes: as for B1
B6: 4C6 (antibody, V domains shown)
VH: B2 VH with V2M, Q6E, A119S
VL: B2 VL
notes: as for B1
B7: 6E2 (antibody, V domains shown)
VH: B3 VH with Q6E, I37V, S54G, L64I, F69I, Q81K, S90T, V99I, T100S, A119S
VL: B2 VL with N28K, S93R
notes: as for B1
B8: 10D1 (antibody, V domains shown)
VH: QVQLQESGPELVKPGASVKLSCKASGYIFTDYTIHWLKQSPGQGLEWIGWIYPGSGHTHYNDKFKGKATMTADKSSTTAYMQLSSLTSEDSAVFFCARGGESITTVFPLAYWGQGTLVTVSA
VL: DIVMSQSPSSLAVSVGEKVTMSCKSSQSLLYSSDQKNYLAWYQQKPGQSPKLLIYWASTWESGVPDRFIGSGSGTDFTLTVSSVKAEDLAVYYCHQYYSYPPTFGAGTKLEIK
notes: as for B1
B9: 7G7_44C6 (antibody, V domains shown)
VH: QVQLQESGPGLVKPSETLSLTCTVSGGSISHYYWSWIRQPPGKGLEWIGYIYYSGPTNYNPSLKSRVTISVDTSKNQFSLKLSSVTAADTAVYYCARTYYYGSGSFPDAFDIWGQGTMVTVSS
VL: KIVLTQSPATLSLSPGERATLSCRASQSVSSYLAWYQQTPGQAPRLLIYDASNRATGIPARFSVSGSGTDFTLTISSLEPEDFAVYYCQQRSSWPLTFGGGTKLEIK
notes: Fully human antibody
B10: 7C9 (antibody, V domains shown)
VH: B2 VH with V2I, Q6E, I34V, H35Q, S87A, H93Y, A103V
VL: B2 VL with S22R, G30N
notes: as for B1
B11: 1F8 (antibody, V domains shown)
VH: QMQLKESGPGLVQPSQSLSITCTVSGFSLTSYGVQWVRQFSGKGLEWLGVIWSSGSTDYNAAFISRLSISKDNSKSQVFFKMNSLQPDDTAMYYCARDITTIVEGFAYWGQGTLVTVSA
VL: IIVMTQSPKSMSMSVGERVTLSCKASENVGTYVSWYQQKPEQSPKLLIYGASNRYTGVPDRFTGSGSATDFTLTISSVQAEDLADYHCGQSYSYPFTFGSGTKLEIKR
notes: Recombinant mouse antibody made in CHO cells; also called 1F8C6
B12: 8G3 (antibody, V domains shown)
VH: B11 VH with M2I, K5Q, Q35H, F40S, S41P, K75R, M92I, G110A
VL: B2 VL with I2V, S22I, S91T, T97A
notes: as for B1
B13: 7G9 (antibody, V domains shown)
VH: B11 VH with M2V, L4M, K5Q, F40S, S41P, E46Q, F63V, N73T, M92I, A119S
VL: B2 VL with N1I
notes: as for B1
B14: 1C3 (antibody, V domains shown)
VH: B2 VH with V2I, I34V, H35Q, S56N, S68T, S70T, V78I, S87A, H93Y, A103V
VL: B2 VL with S91T
notes: as for B1
B15: 9H12 (antibody, V domains shown)
VH: B3 VH with Q6E, I37V, S54G, L64I, F69I, Q81K, S90T, V99I
VL: B2 VL with N28K
notes: as for B1
B16: 4B9 (antibody, V domains shown)
VH: B2 VH with Q1E, Q6E, I34V, M82I, N83H, S87A, H93Y, A103V, G110A
VL: B2 VL with S22I, S91T
notes: as for B1
B17: 1A2 (antibody, V domains shown)
VH: B2 VH with I34V, S54G, S87A, H93Y, A103V
VL: B2 VL with L83V, A84T, S91T
notes: as for B1
B18: 7D9 (antibody, V domains shown)
VH: B11 VH with M2I, F40S, S41P, S54G, P87A, M92I, G110A
VL: B2 VL with S91T
notes: as for B1
B19: 9H7 (antibody, V domains shown)
VH: QVQLQESGPELVKPGASVKLSCKASGYSFTDYTMHWVKQSPGQGLEWIGWIYPGSGNTMYNDKFKGEATMTADKSSSTTYMQLSSLTSEDSAVYFCARGGDSIITVFPFTYWGQGTLVTVSA
VL: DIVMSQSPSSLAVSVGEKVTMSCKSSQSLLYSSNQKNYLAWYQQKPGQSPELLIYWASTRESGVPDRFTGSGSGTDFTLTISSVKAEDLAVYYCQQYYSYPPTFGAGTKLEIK
notes: as for B1
B20: 3C6 (antibody, V domains shown)
VH: QIQLQESGPELKKPGETVKISCKASGYTFTTTGMQWVQKMPGKGFKWIGWINTHSGEPKYADDFKGRFAFSLETSASTAHLQISNLKNEDTATYFCARTSYWYLDVWGAGTTVTVSS
VL: DIVMTQSQKFMSTSVGDRVSVTCKASQIVGTNIAWYQQKPGQSPKALIYSASYRNSGVPDRFTGSGSGTDFTLTITNVQSEDLAEYFCQQYNSYPLTFGAGTKLEIK
notes: as for B1
B21: 7E12 (antibody, V domains shown)
VH: B20 VH with I2V, L4M, Q5K
VL: B20 VL
notes: as for B1
B22: 2C2 (antibody, V domains shown)
VH: B20 VH with E6Q, T32A, I48L, H80Y, S84N, F95H, V106I
VL: B20 VL with I28N, I33V, N55C, T76S
notes: as for B1

Each binder was assayed against T1, cynomolgus monkey VTCN1 protein (assay: BLI (OCTET Red), antibody on Protein A biosensor, cyno VTCN1).

**Q.** With B1 as the binder, how does the Kd read?
**A.** Its Kd is 0.002 µM.

**Q.** With B2 as the binder, how does the Kd read?
**A.** Its Kd is 0.012 µM.

**Q.** B3 was tested. Which Kd did it give?
**A.** The Kd was 0.007 µM.

**Q.** Which Kd does the source give for B4 here?
**A.** Its Kd is 0.012 µM.

**Q.** For B5, which Kd is on record?
**A.** The Kd was 0.014 µM.

**Q.** With B6 as the binder, how does the Kd read?
**A.** Its Kd is 0.016 µM.

**Q.** Which Kd does the source give for B7 here?
**A.** Its Kd is 0.019 µM.

**Q.** B8 was tested. Which Kd did it give?
**A.** Its Kd is 0.001 µM.

Each binder was assayed against T2, human VTCN1 expressed on cells … (assay: flow cytometry, antibody titration on SKBR3 cells (endogenous VTCN1)).

**Q.** How did the EC50 turn out when B9 was run?
**A.** The EC50 was 0.0368 µM.

These binders were tested against T3, recombinant human VTCN1-his protein (assay: BLI (OCTET), human VTCN1 protein).

**Q.** With B9 as the binder, how does the Kd read?
**A.** Its Kd is 0.192 µM.

Each binder was assayed against T3, recombinant human VTCN1-his protein (assay: BLI (OCTET Red), antibody on Protein A biosensor, recombinant VTCN1-his in solution).

**Q.** Which Kd does the source give for B1 here?
**A.** The Kd was 0.006 µM.

**Q.** Which Kd does the source give for B2 here?
**A.** The Kd was 0.005 µM.

**Q.** How did the Kd turn out when B3 was run?
**A.** Its Kd is 0.002 µM.

**Q.** How did the Kd turn out when B4 was run?
**A.** The Kd was 0.004 µM.

**Q.** For B5, which Kd is on record?
**A.** The Kd was 0.012 µM.

**Q.** How did the Kd turn out when B6 was run?
**A.** Its Kd is 0.014 µM.

**Q.** With B7 as the binder, how does the Kd read?
**A.** Its Kd is 0.008 µM.

**Q.** How did the Kd turn out when B8 was run?
**A.** Its Kd is 0.004 µM.

What follows are binders tested against T2, human VTCN1 expressed on cells … (assay: flow cytometry, antibody titration on 293-huVTCN1 cells).

**Q.** B9 was tested. Which EC50 did it give?
**A.** Its EC50 is 0.0022 µM.

What follows are binders tested against T2, human VTCN1 expressed on cells … (assay: flow cytometry on live 293-VTCN1 and MX-1 cells, 0.05-10 ug/ml).

**Q.** Does B10 bind?
**A.** Result: binds

**Q.** Does B11 bind?
**A.** Result: binds

**Q.** Does B12 bind?
**A.** Result: binds

**Q.** Does B13 bind?
**A.** Result: binds

**Q.** Does B14 bind?
**A.** Result: binds

**Q.** Does B15 bind?
**A.** Result: binds

**Q.** Does B16 bind?
**A.** Result: binds

**Q.** Does B17 bind?
**A.** Result: binds

**Q.** Does B18 bind?
**A.** Result: binds

**Q.** Does B19 bind?
**A.** Result: binds

**Q.** Does B20 bind?
**A.** Result: binds

**Q.** Does B21 bind?
**A.** Result: binds

**Q.** Does B22 bind?
**A.** Result: binds

What follows are binders tested against T4, mouse VTCN1 expressed on 293 cells (assay: flow cytometry, antibody titration on 293-muVTCN1 cells).

**Q.** B9 was tested. Which EC50 did it give?
**A.** The EC50 was 0.045 µM.
